Reference: patent US20150086555A1

Experiments:
Details in all cases: remark: other sources report otherwise
[1] = target: T1, recombinant soluble homotrimeric HA of A/California/4/09 (H1N1) (Influenza A virus A/California/04/2009(H1N1)); test: trimeric HA microarray, transfection supernatant set 2
[2] = target: T2, recombinant soluble homotrimeric HA of A/Wisconsin/67/05 (H3N2) (Influenza A virus A/Wisconsin/67/2005(H3N2)); test: as above
[3] = target: T3, recombinant soluble homotrimeric HA of A/chicken/Vietnam/NCVD-016/08 (H5N1) (Influenza A virus A/chicken/Vietnam/NCVD-016/2008(H5N1)); test: as above
[4] = target: T4, recombinant soluble homotrimeric HA of A/Netherlands/219/03 (H7N7) (Influenza A virus A/Netherlands/219/03(H7N7)); test: as above
[5] = target: T5, recombinant soluble homotrimeric HA of A/duck/Yangzhou/02/05 (H8N4) (Influenza A virus A/duck/Yangzhou/02/2005(H8N4)); test: as above
[6] = target: recombinant homotrimeric HA A/California/4/09 H1N1 (Influenza A virus A/California/04/2009(H1N1)); test: protein microarray, purified IgG, trimeric HA
[7] = target: recombinant homotrimeric HA A/Wisconsin/67/05 H3N2 (Influenza A virus A/Wisconsin/67/2005(H3N2)); test: protein microarray, purified IgG, trimeric HA
[8] = target: recombinant homotrimeric HA A/Japan/305/57 H2N2 (Influenza A virus A/Japan/305/1957(H2N2)); test: protein microarray, purified IgG, trimeric HA
[9] = target: recombinant homotrimeric HA A/South Carolina/1/18 H1N1 (Influenza A virus A/South Carolina/1/18 (H1N1)); test: protein microarray, purified IgG, trimeric HA
[10] = target: recombinant homotrimeric HA A/Solomon Islands/3/06 H1N1 (Influenza A virus A/Solomon Islands/3/2006(H1N1)); test: protein microarray, purified IgG, trimeric HA
[11] = target: T2, recombinant soluble homotrimeric HA of …; test: HA microarray, BCC supernatant
[12] = target: T6, recombinant soluble homotrimeric HA of A/Japan/305/57 (H2N2) (Influenza A virus A/Japan/305/1957(H2N2)); test: HA microarray, BCC supernatant
[13] = target: T7, recombinant soluble homotrimeric HA of A/Solomon Islands/3/06 (H1N1) (Influenza A virus A/Solomon Islands/3/2006(H1N1)); test: HA microarray, BCC supernatant
[14] = target: T4, recombinant soluble homotrimeric HA of …; test: HA microarray, BCC supernatant
[15] = target: T5, recombinant soluble homotrimeric HA of …; test: HA microarray, BCC supernatant
[16] = target: recombinant homotrimeric HA A/chicken/Vietnam/NCVD-016/08 H5N1 (Influenza A virus A/chicken/Vietnam/NCVD-016/2008(H5N1)); test: protein microarray, purified IgG, trimeric HA
[17] = target: recombinant homotrimeric HA A/Netherlands/219/03 H7N7 (Influenza A virus A/Netherlands/219/03(H7N7)); test: protein microarray, purified IgG, trimeric HA
[18] = target: recombinant homotrimeric HA A/duck/Yangzhou/02/05 H8N4 (Influenza A virus A/duck/Yangzhou/02/2005(H8N4)); test: protein microarray, purified IgG, trimeric HA
[19] = target: T3, recombinant soluble homotrimeric HA of …; test: HA microarray, BCC supernatant
[20] = target: T8, recombinant soluble homotrimeric HA of A/northern shoveler/California/HKWF115/07 (H6) (Influenza A virus A/northern shoveler/California/HKWF115/2007(H6N1)); test: HA microarray, BCC supernatant
[21] = target: T1, recombinant soluble homotrimeric HA of …; test: trimeric HA microarray, transfection supernatant set 3
[22] = target: T2, recombinant soluble homotrimeric HA of …; test: as above
[23] = target: T6, recombinant soluble homotrimeric HA of …; test: as above
[24] = target: T9, recombinant soluble homotrimeric HA of A/swine/Ontario/01911-2/99 (H4N6) (Influenza A virus A/Swine/Ontario/01911-2/99 (H4N6)); test: as above
[25] = target: recombinant soluble homotrimeric HA of A/South Carolina/1/18 (H1N1) (Influenza A virus A/South Carolina/1/18 (H1N1)); test: as above
[26] = target: T3, recombinant soluble homotrimeric HA of …; test: as above
[27] = target: T5, recombinant soluble homotrimeric HA of …; test: as above
[28] = target: recombinant homotrimeric HA A/northern shoveler/California/HKWF115/07 H6N4 (Influenza A virus A/northern shoveler/California/HKWF115/2007(H6N1)); test: protein microarray, purified IgG, trimeric HA
[29] = target: recombinant homotrimeric HA A/swine/Ontario/01911-2/99 H4N6 (Influenza A virus A/Swine/Ontario/01911-2/99 (H4N6)); test: protein microarray, purified IgG, trimeric HA
[30] = target: T9, recombinant soluble homotrimeric HA of …; test: HA microarray, BCC supernatant
[31] = target: recombinant soluble homotrimeric HA of A/Hong Kong/1073/99 (H9N2) (Influenza A virus A/Hong Kong/1073/99 (H9N2)); test: trimeric HA microarray, transfection supernatant set 3
[32] = target: T7, recombinant soluble homotrimeric HA of …; test: as above
[33] = target: T4, recombinant soluble homotrimeric HA of …; test: as above
[34] = target: T8, recombinant soluble homotrimeric HA of …; test: as above

Row | Binder | Trimeric HA Binding: RLU [6] [RLU] | Trimeric HA Binding: RLU [7] [RLU] | Trimeric HA Binding: RLU [8] [RLU] | Trimeric HA Binding: RLU [9] [RLU] | Trimeric HA Binding: RLU [10] [RLU] | Trimeric HA Binding: RLU [11] [RLU] | Trimeric HA Binding: RLU [12] [RLU] | Trimeric HA Binding: RLU [13] [RLU] | Trimeric HA Binding: RLU [14] [RLU] | Trimeric HA Binding: RLU [15] [RLU] | Trimeric HA Binding: RLU [16] [RLU] | Trimeric HA Binding: RLU [17] [RLU] | Trimeric HA Binding: RLU [18] [RLU] | Trimeric HA Binding: RLU [19] [RLU] | Trimeric HA Binding: RLU [20] [RLU] | Trimeric HA Binding: RLU [21] [RLU] | Trimeric HA Binding: RLU [22] [RLU] | Trimeric HA Binding: RLU [23] [RLU] | Trimeric HA Binding: RLU [24] [RLU] | Trimeric HA Binding: RLU [25] [RLU] | further results
1 | TCN-526 (5084_C17) (antibody, V domains shown) VH: EVLMVESGGGLVQPGGSVRLSCVASGFSFSSHWMTWVRQAPGKGLEWVANIEDDGGDKYYVDSVKGRFIISRDNAKNSVYLQMNSLRAEDTAVYFCARGSGSSDRSDYDPHYYYYLDVWGKGATVTVSS VL: DIQLTQSPSSLSASVGDRVTITCRASQSISRYLNWYQQKPGKAPKLLLFAASTLLDGVPSRFSGSGSGTDFTLTISSLQPEDFATYYCQRNHSPSWTFGQGTRVEIK | 620 | 26600 | 642 | 87 | 804 | 49300 | 246 | 341 | 1340 | 596 |  |  |  |  |  |  |  |  |  |  | Trimeric HA Binding: RLU [1]: 3600 RLU; Trimeric HA Binding: RLU [2]: 27800 RLU; Trimeric HA Binding: RLU [3]: 3290 RLU; Trimeric HA Binding: RLU [4]: 5660 RLU; Trimeric HA Binding: RLU [5]: 4300 RLU
2 | TCN-529 (5297_H01) (antibody, V domains shown) VH: QITLRESGPTLVKPTQTLTLTCTFSGFSLSTNGVNVGWIRQPPGKALEWLALIYWDDDKRYSPSLKRRLTITKDTSKNQVVLTLTNMDPVDTATYYCAHRPDFYGDFEYWGPGTLVTVSS VL: QSALTQPASVSGSPGQSITISCTGSSSDIGGYNYVSWYQQHPGKAPKLMIYDVNNRPSGVSNRFSGSKSGNTASLTISGLQTDDEADYYCGSYTGSPHYVFGTGTKVTVL | 977 | 25600 | 1560 | 243 | 2820 | 51600 | 435 |  | 1160 |  | 681 | 1310 | 737 | 410 | 533 | 735 | 2940 | 45 | 45 | 158 | Trimeric HA Binding: RLU [26]: 33 RLU; Trimeric HA Binding: RLU [27]: 48 RLU
3 | TCN-532 (5262_H18) (antibody, V domains shown) VH: QVQLQESGPGLVKPSETLSLTCTVSGGSVSSETYYWSWIRQPPGKGLEWIGYIYYIGNTDYRPSLKSRVTISLDTSKNQFSLKLSSVTAADTAVYYCARGAYYDSSGYPAFYIWGQGTMVTVSS VL: QSVLTQPPSVSGAPGQRVTISCTGSSSNIGSDYDVHWYKQLPGTAPKLLIFGNSNRPSGVPDRFSGSKSGTSASLAITGLQAEDEADYYCQSYDSSLSGFHVFGSGTKVTVL |  | 25200 | 764 | 149 | 571 | 18000 | 176 | 327 | 327 | 785 | 487 | 129 | 176 | 46 | 511 | 23600 | 9970 | 441 | 29 | 311 | Trimeric HA Binding: RLU [28]: 117 RLU; Trimeric HA Binding: RLU [29]: 122 RLU; Trimeric HA Binding: RLU [30]: 119 RLU; Trimeric HA Binding: RLU [31]: 48 RLU; Trimeric HA Binding: RLU [32]: 59 RLU; Trimeric HA Binding: RLU [26]: 29 RLU; Trimeric HA Binding: RLU [33]: 42 RLU; Trimeric HA Binding: RLU [27]: 57 RLU; Trimeric HA Binding: RLU [34]: 78 RLU
